From paper PMC4351158 (Structure (London, England : 1993), 2015)

Tested on: periplasmic domain of RseA
Experiment: Cleavage of 35S-labeled RseA periplasmic domain by DegS variants
Format: biochemical, E. coli
Details: for YYF-stimulated cleavage activity, in words: compared to wild-type DegS; for YYF-stimulated cleavage activity relative to H198P parental enzyme: H198P background, % of H198P parent

Molecule | YYF-stimulated cleavage activity, in words (WT background) | YYF-stimulated cleavage activity relative to H198P parental enzyme (with YYF) | other results
R178A: DegS variant R178A (protein, left off: His6, N-terminal, state not stated) RSLNPLSTPQFDSTDETPASYNLAVRRAAPAVVNVYNRGLNTNSHNQLEIRTLGSGVIMDQRGYIITNKHVINDADQIIVALQDGRVFEALLVGSDSLTDLAVLKINATGGLPTIPINARRVPHIGDVVLAIGNPYNLGQTITQGIISATGAIGLNPTGRQNFLQTDASINHGNSGGALVNSLGELMGINTLSFDKSNDGETPEGIGFAIPFQLATKIMDKLIRDGRVIRGYIGIGGREIAPLHAQGGGIDQLQGIVVNEVSPDGPAANAGIQVNDLIISVDNKPAISALETMDQVAEIRPGSVIPVVVMRDDKQLTLQVTIQEYPATN | almost no cleavage activity |  | 
F220A: DegS variant F220A (protein, left off: His6, N-terminal, state not stated) RSLNPLSTPQFDSTDETPASYNLAVRRAAPAVVNVYNRGLNTNSHNQLEIRTLGSGVIMDQRGYIITNKHVINDADQIIVALQDGRVFEALLVGSDSLTDLAVLKINATGGLPTIPINARRVPHIGDVVLAIGNPYNLGQTITQGIISATGRIGLNPTGRQNFLQTDASINHGNSGGALVNSLGELMGINTLSADKSNDGETPEGIGFAIPFQLATKIMDKLIRDGRVIRGYIGIGGREIAPLHAQGGGIDQLQGIVVNEVSPDGPAANAGIQVNDLIISVDNKPAISALETMDQVAEIRPGSVIPVVVMRDDKQLTLQVTIQEYPATN | almost no cleavage activity |  | 
P161A: DegS variant P161A (protein, left off: His6, N-terminal, state not stated) RSLNPLSTPQFDSTDETPASYNLAVRRAAPAVVNVYNRGLNTNSHNQLEIRTLGSGVIMDQRGYIITNKHVINDADQIIVALQDGRVFEALLVGSDSLTDLAVLKINATGGLPTIPINARRVPHIGDVVLAIGNAYNLGQTITQGIISATGRIGLNPTGRQNFLQTDASINHGNSGGALVNSLGELMGINTLSFDKSNDGETPEGIGFAIPFQLATKIMDKLIRDGRVIRGYIGIGGREIAPLHAQGGGIDQLQGIVVNEVSPDGPAANAGIQVNDLIISVDNKPAISALETMDQVAEIRPGSVIPVVVMRDDKQLTLQVTIQEYPATN |  |  | YYF-stimulated cleavage activity relative to wild type (WT background, with YYF, % of wild-type activity): less than 2%
R178A/H198P (protein, UniProt P0AEE3 1-355, looked up, variant R178A H198P) Serine endoprotease DegS: MFVKLLRSVAIGLIVGAILLVAMPSLRSLNPLSTPQFDSTDETPASYNLAVRRAAPAVVNVYNRGLNTNSHNQLEIRTLGSGVIMDQRGYIITNKHVINDADQIIVALQDGRVFEALLVGSDSLTDLAVLKINATGGLPTIPINARRVPHIGDVVLAIGNPYNLGQTITQGIISATGAIGLNPTGRQNFLQTDASINPGNSGGALVNSLGELMGINTLSFDKSNDGETPEGIGFAIPFQLATKIMDKLIRDGRVIRGYIGIGGREIAPLHAQGGGIDQLQGIVVNEVSPDGPAANAGIQVNDLIISVDNKPAISALETMDQVAEIRPGSVIPVVVMRDDKQLTLQVTIQEYPATN |  | 9–24% | 
F220A/H198P (protein, UniProt P0AEE3 1-355, looked up, variant F220A H198P) Serine endoprotease DegS: MFVKLLRSVAIGLIVGAILLVAMPSLRSLNPLSTPQFDSTDETPASYNLAVRRAAPAVVNVYNRGLNTNSHNQLEIRTLGSGVIMDQRGYIITNKHVINDADQIIVALQDGRVFEALLVGSDSLTDLAVLKINATGGLPTIPINARRVPHIGDVVLAIGNPYNLGQTITQGIISATGRIGLNPTGRQNFLQTDASINPGNSGGALVNSLGELMGINTLSADKSNDGETPEGIGFAIPFQLATKIMDKLIRDGRVIRGYIGIGGREIAPLHAQGGGIDQLQGIVVNEVSPDGPAANAGIQVNDLIISVDNKPAISALETMDQVAEIRPGSVIPVVVMRDDKQLTLQVTIQEYPATN |  | 9–24% | 
